B1: マウス抗ヒトCD36モノクローナル抗体 クローン2-66 (antibody, mouse IgG1, V domains shown)
VH: QVQLQQPGAELVKPGASVRMSCKASGYTFTNYNMHWVKQTPGQGLEWIGVIYPGNGDTSYSQKFKGKATLTADKSSRTGYMQLSSLTSEDSAVYYCTRSGWDDWFFDVWGAGTSVTVSS
VL: DVLMTQTPLSLPVSLGDQASISCRSSQSIVQRNGITYLEWYQQKTGQSPKLLIYKVSNRFSGVPDRFSGSGSGTDFTLKISRVEAEDLGVYYCFQGSHVPPTFGGGTKLEIK
notes: also called クローン2−66; 抗CD36抗体
B2: マウス抗ヒトCD36モノクローナル抗体 クローン4-62 (antibody, mouse IgG2a, V domains shown)
VH: QIHLVQSGPELKKPGETVKISCKASGYTFTNYGMNWVMQAPGKVLKWMGWINTYTGETTYADDFKGRFAFSLETSASTAYLQINSLKYEDTASYFCARDDGYSFYYDMDYWGQGTSVTVSS
VL: DVLMTQTPLSLPVSLGDQASISCRSSQSIVHTNGNTYLQWYLQKPGQSPKLLIYKVSNRFSGVPDRFSGSGSGTDFTLKISTVEAEDLGVYYCFQGSHVPWTFGGGTKLEIK
notes: also called クローン4−62; 抗CD36抗体
B3: マウス抗ヒトCD36モノクローナル抗体 クローン1-3 (antibody, mouse IgG2b, V domains shown)
VH: QAQLQQSGAELVRPGASVTLSCKASGYTFTDYEMNWVKQTPVHGLEWIGAIDPEIGGSAYNQKFKGKATLTADKSSSTAYMELRSLTSEDSAVYYCTRSKLPAWFPYWGQGTLVTVSA
VL: EIKMTQSPSAMYASLGERVTITCKASQDINSYLSWFQQKPGKSPKTLIYRANRLVDGVPSRFSGSGSGQDYSLTISSLEFEDMGIYYCLQYEEFPYTFGGGTKLEIK
notes: also called クローン1−3; 抗CD36抗体
B4: マウス抗ヒトCD36モノクローナル抗体 クローン1-36 (antibody, mouse IgG2b, V domains shown)
VH: QVQLQQSGAELVRPGASVKLSCKALNYTFTDYEMHWVKQTPVHGLEWIGGIHPGSGGTAYNQRFKGKATLTADKSSSTAYIEVSSLTSEDSAVYYCSLTTASAWFAYWGQGTLVTVSV
VL: DIKMTQSPSSMYASLGERVTITCKASQDINSYLSWFQQKPGKSPKTLIYRANRLLDGVPSRFSGSGSGQDYSLTISSLEYEDMGIYYCLQYDEFPLTFGAGTKLELK
notes: also called クローン1−36; 抗CD36抗体

T1 sequence (P16671 2-472): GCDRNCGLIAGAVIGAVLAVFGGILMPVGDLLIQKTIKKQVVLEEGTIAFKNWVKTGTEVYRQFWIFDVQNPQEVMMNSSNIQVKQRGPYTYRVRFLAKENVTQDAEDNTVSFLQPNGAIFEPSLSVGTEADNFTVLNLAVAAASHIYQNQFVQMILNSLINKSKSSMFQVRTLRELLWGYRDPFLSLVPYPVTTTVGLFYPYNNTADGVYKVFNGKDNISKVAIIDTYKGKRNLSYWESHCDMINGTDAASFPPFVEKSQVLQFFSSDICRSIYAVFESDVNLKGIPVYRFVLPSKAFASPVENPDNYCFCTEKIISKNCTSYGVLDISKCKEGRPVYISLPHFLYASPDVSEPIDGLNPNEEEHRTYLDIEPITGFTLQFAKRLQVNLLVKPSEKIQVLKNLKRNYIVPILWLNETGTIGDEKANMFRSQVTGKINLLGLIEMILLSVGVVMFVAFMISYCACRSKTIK

The experiment concerns the target T1, CD36 (CD36発現細胞; pcDNA-CD36を一過性に導入した293T細胞) (human, UniProt P16671 2-472).
T1 construct: whole, on cells; also called ヒトCD36; CD36発現株
The experiment can be described thus: flow cytometry of hybridoma supernatants on CD36-expressing cells.
With B1, the binding result is given as “binds”. Turning to B2, the binding result was “binds”. The entry for B3 is “binds”; for B4 it is “binds”.

Source of the values: JP2010235447A (dated 2010).
